Patent US20230029341A1

Biological target: HLA-A*02:01/NY-ESO-1 (modified, …) peptide-MHC on peptide-loaded T2 cells (human)
Test: cell-based or functional assay

EC50[nM] of MAGE-A3 peptide for activator C563 in Jurkat NFAT-luciferase cells co-expressing this inhibitor; T2 cells with 50 uM NY-ESO-1 peptide: > 10000 nM
Substance: C2057 + C2058 (TCR 1G4:α95LY alpha ECD and beta ECD, each fused to LILRB1 TM and ICD)
